Usually Kd stands for the constant that tells how readily two partners part at equilibrium. Low values mean a tighter complex, high ones a looser complex.

For one substance, Kd results are on record in US20230104217A1.

The target of test [1] is Human IL-2 R alpha protein, His Tag (Acro, ILA-H52H9) (human) (UniProt P01589). As to the kind of experiment: BLI. The conditions noted are these: ligand.
Test [2] deals with Human IL-2 R beta protein, His-Tag (Acro, CD2-H5221) (human) (UniProt P14784). In words: BLI. The conditions noted are these: ligand.
UniProt P14784, sequence (P14784 27-239): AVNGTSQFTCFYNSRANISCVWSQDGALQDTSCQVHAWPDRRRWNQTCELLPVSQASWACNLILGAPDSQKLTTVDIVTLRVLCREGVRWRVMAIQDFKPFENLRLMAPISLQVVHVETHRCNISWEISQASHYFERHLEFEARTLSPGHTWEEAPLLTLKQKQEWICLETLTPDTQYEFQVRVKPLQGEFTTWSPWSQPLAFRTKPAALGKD

UniProt P01589, sequence (P01589 22-213): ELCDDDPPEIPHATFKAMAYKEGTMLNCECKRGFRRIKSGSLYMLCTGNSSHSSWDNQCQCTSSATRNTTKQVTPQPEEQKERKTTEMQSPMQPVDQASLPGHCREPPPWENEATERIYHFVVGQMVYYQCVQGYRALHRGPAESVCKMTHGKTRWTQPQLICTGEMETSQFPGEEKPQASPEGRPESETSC

Turning to “Proleukin (Novartis, hIL-2) (from UniProt P60568 22-153)”, the Kd in test [1] came to 1.3 nM; in test [2] it was 91.7 nM.
